Where no end group is shown, it is not given here.
B1: Phage-2459 (peptide)
peptide: TQMWCIPFWMCEVQ
B2: Phage-2460 (peptide)
peptide: EMKWCTPPWMCTEL
B3: Phage-2461 (peptide)
peptide: SVKLCIPDWMCVSE
B4: Phage-2462 (peptide)
peptide: DEIWCIPRWMCDGI
B5: Phage-2463 (peptide)
peptide: DGKWCIPEWMCAQQ
modifications: cysteine pairing not given here; also: displayed as fusion to phage pIII
B6: Phage-2464 (peptide)
peptide: PVKLCKPDWMCWVS
B7: Phage-2465 (peptide)
peptide: VMKWCTPQWMCEHL
B8: Phage-2666 (peptide)
peptide: PPKWCIPAWMCAGM
modifications: cysteine pairing not given here; also: displayed on bacteriophage as fusion to pIII
B9: Phage-2667 (peptide)
peptide: VTNWCIPEWMCNGN
B10: Phage-2668 (peptide)
peptide: ITKLCTPPWMCMDV
B11: Phage-2669 (peptide)
peptide: EEKWCIPYWMCEAV
B12: Phage-2670 (peptide)
peptide: AGKLCIPNWMCEEQ
B13: Phage-2671 (peptide)
peptide: WDNWCTPSWMCSEL
B14: Phage-2672 (peptide)
peptide: QEKWCIPEWMCSVR
B15: Phage-2673 (peptide)
peptide: DWKWCTPAWMCTQT
B16: Phage-2674 (peptide)
peptide: LDMLCIPAWMCEPR
B17: Phage-2675 (peptide)
peptide: EHKWCIPDWMCWED
B18: Phage-2676 (peptide)
peptide: IAKWCTPPWMCADN
modifications: cysteine pairing not given here; also: displayed on bacteriophage as fusion to pIII
B19: Phage-2677 (peptide)
peptide: SGNWCTPSWMCTGF
B20: Phage-2678 (peptide)
peptide: NVIRCEPMWMCYPS
modifications: cysteine pairing not given here; also: displayed on bacteriophage as fusion to pIII
B21: Phage-2679 (peptide)
peptide: AGHWCIPMWMCQED
B22: Phage-2850 (peptide)
peptide: VNIRCEPAWMCMGF
modifications: cysteine pairing not given here; also: fused to phage pIII, linker not given here
notes: Clonal phage of the Peptide-180 library; not shown: pIII filament protein of the display bacteriophage
B23: Phage-2851 (peptide)
peptide: DMRLCVPEWMCLGL
modifications: cysteine pairing not given here; also: displayed on phage as fusion to pIII, linker and sequence not given here
notes: as for B22
B24: Phage-2852 (peptide)
peptide: VMPLCKPAWMCGGF
modifications: cysteine pairing not given here; also: fused to pIII of display bacteriophage, linker and sequence not given here
notes: as for B22
B25: Phage-2853 (peptide)
peptide: MLPLCVPAWMCSGF
modifications: cysteine pairing not given here; also: fused to pIII of display bacteriophage, linker and sequence not given here
notes: as for B22
B26: Phage-2854 (peptide)
peptide: VHIMCKPAWMCLGF
modifications: cysteine pairing not given here; also: fused to pIII of display bacteriophage, linker and sequence not given here
notes: Clonal phage of the Peptide-180 library; the cell for position 10 (c11) is missing in the printed row; not shown: pIII filament protein of the display bacteriophage
B27: Phage-2855 (peptide)
peptide: WEMKCIPEWMCRGF
modifications: cysteine pairing not given here; also: fused to pIII of display bacteriophage, linker and sequence not given here
notes: as for B22
B28: Phage-2856 (peptide)
peptide: VQRMCEPSWMCFGF
modifications: cysteine pairing not given here; also: fused to pIII of display bacteriophage, linker and sequence not given here
notes: as for B22

What was measured:
PSMA Fab [1] = target: T1, PSMA Fab; test: clonal phage ELISA; biotinylated PSMA Fab on neutravidin plate; anti-M13-HRP detection; no PSMA antigen
T1 construct: also called Anti-PSMA Fab; 006 PSMA Fab
Description: (§1) Clonal phage were harvested as crude supernatants and screened via standard ELISAs. […] Prior to the addition of clonal phage. wells were incubated with blocking buffer and PSMA antigen or blocking buffer alone. Without washing or aspirating, clonal phage supernatants were then added to the wells and incubated for a short time. Wells were then washed followed by detection of bound phage using a horse radish conjugated anti-M13 antibody.

PSMA Fab [2] = target: T1, PSMA Fab; test: clonal phage ELISA; biotinylated PSMA Fab on neutravidin plate; wells pre-incubated with PSMA antigen as competitor; anti-M13-HRP detection
Description: as §1

PSMA Fab [3] = target: T2, PSMA Fab (biotinylated (site not stated)); test: clonal phage ELISA; biotinylated PSMA Fab on neutravidin plate, blocking buffer alone, anti-M13-HRP detection;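 further: crude clonal phage supernatants added without washing to wells preincubated with PSMA antigen or with blocking buffer alone, briefly incubated, then washed before bound phage detection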
T2 construct: also called Anti-PSMA Fab; 006 PSMA Fab

PSMA Fab [4] = target: T2, PSMA Fab; test: clonal phage ELISA; biotinylated PSMA Fab on neutravidin plate, wells pre-incubated with PSMA antigen as competitor, anti-M13-HRP detection
Description: as §1

PSMA Fab [5] = target: T3, PSMA Fab; test: clonal phage ELISA on captured PSMA Fab; wells pre-incubated with PSMA antigen as competitor
T3 construct: also called Anti-PSMA Fab; 006 PSMA Fab
Description: as §1

PSMA Fab [6] = target: T3, PSMA Fab; test: clonal phage ELISA; biotinylated PSMA Fab on neutravidin plate, anti-M13 HRP detection
Description: as §1

Binder	Phage binding ELISA signal, Anti-PSMA Fab (PSMA Fab [3])	Phage binding ELISA signal, Anti-PSMA Fab (PSMA Fab [4])	also measured
B1	–	–	Phage binding ELISA signal, Anti-PSMA Fab (PSMA Fab [1]): 1.27; Phage binding ELISA signal, Anti-PSMA Fab with PSMA antigen (PSMA Fab [2]): 0.0885
B2	–	–	Phage binding ELISA signal, Anti-PSMA Fab (PSMA Fab [1]): 1.26; Phage binding ELISA signal, Anti-PSMA Fab with PSMA antigen (PSMA Fab [2]): 0.0656
B3	–	–	Phage binding ELISA signal, Anti-PSMA Fab (PSMA Fab [1]): 1.26; Phage binding ELISA signal, Anti-PSMA Fab with PSMA antigen (PSMA Fab [2]): 0.203
B4	–	–	Phage binding ELISA signal, Anti-PSMA Fab (PSMA Fab [1]): 1.25; Phage binding ELISA signal, Anti-PSMA Fab with PSMA antigen (PSMA Fab [2]): 0.0834
B5	–	–	Phage binding ELISA signal, Anti-PSMA Fab (PSMA Fab [1]): 1.25; Phage binding ELISA signal, Anti-PSMA Fab with PSMA antigen (PSMA Fab [2]): 0.0837
B6	–	–	Phage binding ELISA signal, Anti-PSMA Fab (PSMA Fab [1]): 1.25; Phage binding ELISA signal, Anti-PSMA Fab with PSMA antigen (PSMA Fab [2]): 0.105
B7	–	–	Phage binding ELISA signal, Anti-PSMA Fab (PSMA Fab [1]): 1.25; Phage binding ELISA signal, Anti-PSMA Fab with PSMA antigen (PSMA Fab [2]): 0.068
B8	0.895	0.0794	–
B9	0.894	0.0615	–
B10	0.886	0.0571	–
B11	0.885	0.0691	–
B12	0.884	0.0913	–
B13	0.883	0.0853	–
B14	0.879	0.0823	–
B15	0.877	0.0698	–
B16	0.877	0.0925	–
B17	0.876	0.0562	–
B18	0.876	0.079	–
B19	0.874	0.062	–
B20	0.874	0.0918	–
B21	0.874	0.0526	–
B22	–	–	Phage binding ELISA signal (Anti-PSMA Fab, with competitor) (PSMA Fab [5]): 0.108; Phage binding ELISA signal, Anti-PSMA Fab (PSMA Fab [6]): 2.46
B23	–	–	Phage binding ELISA signal (Anti-PSMA Fab, with competitor) (PSMA Fab [5]): 0.0789; Phage binding ELISA signal, Anti-PSMA Fab (PSMA Fab [6]): 2.46
B24	–	–	Phage binding ELISA signal (Anti-PSMA Fab, with competitor) (PSMA Fab [5]): 0.134; Phage binding ELISA signal, Anti-PSMA Fab (PSMA Fab [6]): 2.46
B25	–	–	Phage binding ELISA signal (Anti-PSMA Fab, with competitor) (PSMA Fab [5]): 0.12; Phage binding ELISA signal, Anti-PSMA Fab (PSMA Fab [6]): 2.44
B26	–	–	Phage binding ELISA signal (Anti-PSMA Fab, with competitor) (PSMA Fab [5]): 0.246; Phage binding ELISA signal, Anti-PSMA Fab (PSMA Fab [6]): 2.44
B27	–	–	Phage binding ELISA signal (Anti-PSMA Fab, with competitor) (PSMA Fab [5]): 0.139; Phage binding ELISA signal, Anti-PSMA Fab (PSMA Fab [6]): 2.44
B28	–	–	Phage binding ELISA signal (Anti-PSMA Fab, with competitor) (PSMA Fab [5]): 0.0783; Phage binding ELISA signal, Anti-PSMA Fab (PSMA Fab [6]): 2.44

From patent publication US20260242478A1 (published 2026)
